Starred links: 1 amine or outer side, 2 acyl side, 3 side chain; linkers in the order of their positions; H or OH if unused. Groups on a side chain read outwards from the residue. No end group written: not given here. *: point of attachment. C20 diacid = O=C(O)CCCCCCCCCCCCCCCCCCC(=O)*; C18 diacid = O=C(O)CCCCCCCCCCCCCCCCC(=O)*; γGlu = O=C(O)[C@H](CCC(=O)[*:2])N[*:1]; Palmitoyl = CCCCCCCCCCCCCCCC(=O)*; AEEA = NCCOCCOCC(=O)O
Assays:
Assay in all cases: cell-based or functional assay
glucagon receptor (GCGR) = glucagon receptor (GCGR) (human (printed as 'Humanized'), UniProt P47871 26-477)
Chain of glucagon receptor (GCGR) (P47871 26-477): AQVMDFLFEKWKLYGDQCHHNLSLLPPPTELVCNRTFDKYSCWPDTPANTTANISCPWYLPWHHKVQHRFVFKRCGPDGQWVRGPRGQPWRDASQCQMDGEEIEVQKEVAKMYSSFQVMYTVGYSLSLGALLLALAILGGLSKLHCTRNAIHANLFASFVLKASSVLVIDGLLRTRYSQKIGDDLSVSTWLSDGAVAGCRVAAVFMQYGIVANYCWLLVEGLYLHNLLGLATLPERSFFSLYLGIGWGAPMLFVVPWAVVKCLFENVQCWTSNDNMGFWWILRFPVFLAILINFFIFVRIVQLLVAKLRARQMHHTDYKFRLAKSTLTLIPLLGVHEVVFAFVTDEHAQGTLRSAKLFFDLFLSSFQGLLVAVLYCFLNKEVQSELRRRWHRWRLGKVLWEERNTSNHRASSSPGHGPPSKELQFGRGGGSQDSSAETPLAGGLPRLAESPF

[1] = target: human glucagon-like peptide-1 receptor (GLP-1R) (human (printed as 'Humanized'), UniProt P43220 24-463)
[2] = target: T1, glucose-dependent insulinotropic polypeptide receptor (GIPR) (human (printed as 'Humanized'), UniProt P48546 22-466)
T1 sequence (looked up): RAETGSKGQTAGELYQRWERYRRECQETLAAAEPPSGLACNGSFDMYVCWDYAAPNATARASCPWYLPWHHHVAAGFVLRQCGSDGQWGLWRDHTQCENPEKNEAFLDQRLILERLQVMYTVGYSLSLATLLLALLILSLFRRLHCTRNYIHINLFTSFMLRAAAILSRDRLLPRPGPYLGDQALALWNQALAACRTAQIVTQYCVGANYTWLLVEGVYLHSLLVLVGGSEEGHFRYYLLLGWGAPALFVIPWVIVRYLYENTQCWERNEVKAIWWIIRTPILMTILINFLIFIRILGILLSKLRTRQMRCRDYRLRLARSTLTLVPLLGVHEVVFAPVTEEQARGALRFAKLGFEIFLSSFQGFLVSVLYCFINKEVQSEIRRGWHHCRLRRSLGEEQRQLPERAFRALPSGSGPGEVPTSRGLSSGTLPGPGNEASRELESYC

| Binder | GCGR agonist activity (EC50, nM) (glucagon receptor (GCGR)) | GLP-1R agonist activity (EC50, nM) [1] | GIPR agonist activity (EC50, nM) [2] |
| --- | --- | --- | --- |
| YSEGTFTSDK([AEEA-AEEA-γGlu-C18 diacid])SKYLDSQAAQDFVQWLLAGGPSSGAPPPS-NH2 (N-terminus assumed; SMILES CC(C)C[C@H](NC(=O)[C@H](CC(C)C)NC(=O)[C@H](Cc1c[nH]c2ccccc12)NC(=O)[C@H](CCC(N)=O)NC(=O)[C@@H](NC(=O)[C@H](Cc1ccccc1)NC(=O)[C@H](CC(=O)O)NC(=O)[C@H](CCC(N)=O)NC(=O)[C@H](C)NC(=O)[C@H](C)NC(=O)[C@H](CCC(N)=O)NC(=O)[C@H](CO)NC(=O)[C@H](CC(=O)O)NC(=O)[C@H](CC(C)C)NC(=O)[C@H](Cc1ccc(O)cc1)NC(=O)[C@H](CCCCN)NC(=O)[C@H](CO)NC(=O)[C@H](CCCCNC(=O)COCCOCCNC(=O)COCCOCCNC(=O)CC[C@H](NC(=O)CCCCCCCCCCCCCCCCC(=O)O)C(=O)O)NC(=O)[C@H](CC(=O)O)NC(=O)[C@H](CO)NC(=O)[C@@H](NC(=O)[C@H](Cc1ccccc1)NC(=O)[C@@H](NC(=O)CNC(=O)[C@H](CCC(=O)O)NC(=O)[C@H](CO)NC(=O)[C@@H](N)Cc1ccc(O)cc1)[C@@H](C)O)[C@@H](C)O)C(C)C)C(=O)N[C@@H](C)C(=O)NCC(=O)NCC(=O)N1CCC[C@H]1C(=O)N[C@@H](CO)C(=O)N[C@@H](CO)C(=O)NCC(=O)N[C@@H](C)C(=O)N1CCC[C@H]1C(=O)N1CCC[C@H]1C(=O)N1CCC[C@H]1C(=O)N[C@@H](CO)C(N)=O) [glucagon derivative P5YELAN] | 5.87 nM | 0.81 nM | 1.56 nM |
| YSEGTFTSDK([AEEA-AEEA-γGlu-C20 diacid])SKYLDSQAAQDFVQWLLAGGPSSGAPPPS-NH2 (N-terminus assumed; SMILES CC(C)C[C@H](NC(=O)[C@H](CC(C)C)NC(=O)[C@H](Cc1c[nH]c2ccccc12)NC(=O)[C@H](CCC(N)=O)NC(=O)[C@@H](NC(=O)[C@H](Cc1ccccc1)NC(=O)[C@H](CC(=O)O)NC(=O)[C@H](CCC(N)=O)NC(=O)[C@H](C)NC(=O)[C@H](C)NC(=O)[C@H](CCC(N)=O)NC(=O)[C@H](CO)NC(=O)[C@H](CC(=O)O)NC(=O)[C@H](CC(C)C)NC(=O)[C@H](Cc1ccc(O)cc1)NC(=O)[C@H](CCCCN)NC(=O)[C@H](CO)NC(=O)[C@H](CCCCNC(=O)COCCOCCNC(=O)COCCOCCNC(=O)CC[C@H](NC(=O)CCCCCCCCCCCCCCCCCCC(=O)O)C(=O)O)NC(=O)[C@H](CC(=O)O)NC(=O)[C@H](CO)NC(=O)[C@@H](NC(=O)[C@H](Cc1ccccc1)NC(=O)[C@@H](NC(=O)CNC(=O)[C@H](CCC(=O)O)NC(=O)[C@H](CO)NC(=O)[C@@H](N)Cc1ccc(O)cc1)[C@@H](C)O)[C@@H](C)O)C(C)C)C(=O)N[C@@H](C)C(=O)NCC(=O)NCC(=O)N1CCC[C@H]1C(=O)N[C@@H](CO)C(=O)N[C@@H](CO)C(=O)NCC(=O)N[C@@H](C)C(=O)N1CCC[C@H]1C(=O)N1CCC[C@H]1C(=O)N1CCC[C@H]1C(=O)N[C@@H](CO)C(N)=O) [glucagon derivative P9YELAN] | 4.77 nM | 4.25 nM | 0.19 nM |
| YSEGTFTSDK([γGlu-Palmitoyl])SKYLDSQAAQDFVQWLLAGGPSSGAPPPS-NH2 (N-terminus assumed; SMILES CCCCCCCCCCCCCCCC(=O)N[C@@H](CCC(=O)NCCCC[C@H](NC(=O)[C@H](CC(=O)O)NC(=O)[C@H](CO)NC(=O)[C@@H](NC(=O)[C@H](Cc1ccccc1)NC(=O)[C@@H](NC(=O)CNC(=O)[C@H](CCC(=O)O)NC(=O)[C@H](CO)NC(=O)[C@@H](N)Cc1ccc(O)cc1)[C@@H](C)O)[C@@H](C)O)C(=O)N[C@@H](CO)C(=O)N[C@@H](CCCCN)C(=O)N[C@@H](Cc1ccc(O)cc1)C(=O)N[C@@H](CC(C)C)C(=O)N[C@@H](CC(=O)O)C(=O)N[C@@H](CO)C(=O)N[C@@H](CCC(N)=O)C(=O)N[C@@H](C)C(=O)N[C@@H](C)C(=O)N[C@@H](CCC(N)=O)C(=O)N[C@@H](CC(=O)O)C(=O)N[C@@H](Cc1ccccc1)C(=O)N[C@H](C(=O)N[C@@H](CCC(N)=O)C(=O)N[C@@H](Cc1c[nH]c2ccccc12)C(=O)N[C@@H](CC(C)C)C(=O)N[C@@H](CC(C)C)C(=O)N[C@@H](C)C(=O)NCC(=O)NCC(=O)N1CCC[C@H]1C(=O)N[C@@H](CO)C(=O)N[C@@H](CO)C(=O)NCC(=O)N[C@@H](C)C(=O)N1CCC[C@H]1C(=O)N1CCC[C@H]1C(=O)N1CCC[C@H]1C(=O)N[C@@H](CO)C(N)=O)C(C)C)C(=O)O) [incretin analogue P3YELAN] | 4.57 nM | 0.11 nM | 0.004 nM |

From patent US20230218721A1 (ZHEJIANG DOER BIOLOGICS, published 2023)
